The target in the assay is methionine adenosyltransferase II regulatory β subunit, wild type (human MAT2B, V1 form) (human) (UniProt Q9NZL9). The assay can be described thus: AUC; sedimentation equilibrium of purified β (0.2-0.5 mg/ml), 293 K.

A word on the stoichiometry N: it is a count of units in the complex or per binding partner. The substance “methionine adenosyltransferase II regulatory β subunit, wild type (human MAT2B, V1 form) (from UniProt Q9NZL9 1-334) (natural protein)” displayed a stoichiometry N of 2.

Values taken from publication PMC3506619, “NADP^+ Binding to the Regulatory Subunit of Methionine Adenosyltransferase II Increases Intersubunit Binding Affinity in the Hetero-Trimer” (PLoS ONE, 2012).
